B1: recombinant extracellular domain (EC) of N-cadherin (EC-N-Cdh) purified from ΔPOMGnT1 HEK293T cells (domain or fragment, mouse, UniProt P15116 160-724, looked up)
chain: DWVIPPINLPENSRGPFPQELVRIRSDRDKNLSLRYSVTGPGADQPPTGIFIINPISGQLSVTKPLDRELIARFHLRAHAVDINGNQVENPIDIVINVIDMNDNRPEFLHQVWNGSVPEGSKPGTYVMTVTAIDADDPNALNGMLRYRILSQAPSTPSPNMFTINNETGDIITVAAGLDREKVQQYTLIIQATDMEGNPTYGLSNTATAVITVTDVNDNPPEFTAMTFYGEVPENRVDVIVANLTVTDKDQPHTPAWNAAYRISGGDPTGRFAILTDPNSNDGLVTVVKPIDFETNRMFVLTVAAENQVPLAKGIQHPPQSTATVSVTVIDVNENPYFAPNPKIIRQEEGLHAGTMLTTLTAQDPDRYMQQNIRYTKLSDPANWLKIDPVNGQITTIAVLDRESPNVKNNIYNATFLASDNGIPPMSGTGTLQIYLLDINDNAPQVLPQEAETCETPEPNSINITALDYDIDPNAGPFAFDLPLSPVTIKRNWTINRLNGDFAQLNLKIKFLEAGIYEVPIIITDSGNPPKSNISILRVKVCQCDSNGDCTDVDRIVGAGLGTGA
modifications: N-glycans at Asn273, 325, 402, 572, 622, 651, 692: nongalactosylated complex-type N-glycans with a bisecting GlcNAc dominate at all sites except Asn651 and Asn692; galactosylation (-27% on average) and sialylation (-16% on average) decreased against the WT-derived protein; O-mannosylation as in the WT-derived protein
notes: N-cadherin (neural cadherin), mouse, extracellular domain (EC1-EC5) amplified from mouse cDNA; same construct as m1, other host cells; Same polypeptide as m1; It differs only in the N-glycans, because it was made in POMGNT1 knockout cells; See the note of m1 for the limits read from the primers; also called ΔPOMGnT1-derived N-Cdh; N-Cdh from ΔPOMGnT1 cells; source: ΔPOMGnT1 (POMGNT1 knockout) …
B2: recombinant extracellular domain (EC) of N-cadherin (EC-N-Cdh) purified from WT HEK293T cells (domain or fragment, mouse, UniProt P15116 160-724, looked up)
chain: B1 chain
modifications: N-glycans at Asn190 (scarcely), 273, 325, 402, 572, 622, 651, 692 (complex-type, Asn651 high-mannose-type); nonelongated O-linked mannose at 15 sites (Table S6)
notes: N-cadherin (neural cadherin), mouse, extracellular domain (EC1-EC5) amplified from mouse cDNA; Cloned AscI/XhoI into pSecTag2 (Invitrogen); also called WT-derived N-Cdh; N-Cdh extracellular domain; source: HEK293T (WT), stably transfected with pMLHD7, secreted into serum-free medium, purified (HisTrap); not shown: His8, C-terminal, kept

Target: the molecule itself
Assay: bead aggregation assay; EC-N-Cdh coated on Dynabeads (40 μg protein per 40 μl beads, o/n 4 °C); binding buffer 50 mM Tris-HCl pH 7.2, 100 mM NaCl, 10 mM KCl, 0.2% BSA; 2 mM CaCl2 (2 mM EDTA as control); room temperature; aggregate size imaged over 1 h

Row | Protein | binding result
1 | B1 | binds
2 | B2 | binds

Source: paper PMC7994789, “Glycosyltransferase POMGNT1 deficiency strengthens N-cadherin-mediated cell–cell adhesion” (The Journal of Biological Chemistry, 2021)
